From the supplement of paper PMC10126150
± gives the standard deviation of the averaged measurements.

Tested on: ATP
Assay: switch fluorescence ratio, 500 uM ATP over buffer (Cy3 cluster intensity, sum of 5 cycles each) (fold (ratio)); higher = stronger signal-on switching upon ATP binding; sequences stand for … in TCGTCGGCAGCGTCAGATGTGTATAAGAGACAGTTTTTTTTTTTTTTTTTTTTTTTTT…TC
Details: aptamer strand: ATP DNA aptamer (quencher-CACCTGGGGGAGTATTGCGGAGGAAGG + anchor), 100 nM annealed; ATP concentration: 500 uM
How it was run: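 Exposure to 500 uM ATP lasted 15 min at 22 °C before imaging, and a selection-buffer image was taken beforehand, for Cy3-labelled switching-strand clusters on a modified Illumina MiSeq flow-cell annealed to 100 nM quencher-labelled ATP aptamer. Five buffer/ATP cycles were run with NaOH stripping and re-annealing between them. The fluorescence ratio per cluster is summed target-cycle over summed buffer-cycle Cy3 intensity, averaged per switch-domain sequence. Clusters outside 100-1000 RFU were excluded.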

TGTTGCCGAT and TGTTGCTAGG are within error of each other in switch fluorescence ratio: 0.986 ± 0.019 for the first, 0.992 ± 0.031 for the second.

TGTTGGGGGA and TGTTGGTCTG are within error of each other in switch fluorescence ratio: 0.979 ± 0.03 for the first, 0.978 ± 0.031 for the second.

TGTTGGTCTT and TGTTGGTGGC are within error of each other in switch fluorescence ratio: 0.952 ± 0.032 for the first, 1.02 ± 0.071 for the second.

TGTTGGTTGT and TGTTGTAGGG are within error of each other in switch fluorescence ratio: 0.9935 ± 0.0067 for the first, 1.02 ± 0.02 for the second.

Going from TGTTGTAGTG to TGTTGTGTTA, the switch fluorescence ratio rises from 0.973 ± 0.017 to 0.9965 ± 5.6e-06.

TGTTGTTTAC and TGTTTAAGAC are within error of each other in switch fluorescence ratio: 1.0216 ± 0.00012 for the first, 1.05 ± 0.092 for the second.

TGTTTACACT and TGTTTACGGT are within error of each other in switch fluorescence ratio: 1.01 ± 0.051 for the first, 0.983 ± 0.032 for the second.

TGTTTAGAAA and TGTTTAGGGT are within error of each other in switch fluorescence ratio: 1.01 ± 0.014 for the first, 0.997 ± 0.029 for the second.

TGTTTATGGG and TGTTTATTCG are within error of each other in switch fluorescence ratio: 1.01 ± 0.033 for the first, 0.97 ± 0.034 for the second.

TGTTTCATGC and TGTTTCATTG are within error of each other in switch fluorescence ratio: 1.07 ± 0.16 for the first, 0.976 ± 0.018 for the second.

TGTTTCCTTT and TGTTTCGTGT are within error of each other in switch fluorescence ratio: 1 ± 0.019 for the first, 0.982 ± 0.032 for the second.

TGTTTCTAAT and TGTTTCTGGG are the same in switch fluorescence ratio: 0.999 ± 0.02 for the first, 0.999 ± 0.05 for the second.

First: TGTTTGAAGC
Second: TGTTTGACGT
The switch fluorescence ratio of the first is lower: 0.9679 ± 0.0096 for the first, 1.03 ± 0.014 for the second.

TGTTTGAGGG and TGTTTGAGTT are within error of each other in switch fluorescence ratio: 1.02 ± 0.024 for the first, 0.987 ± 0.039 for the second.

TGTTTGCTGT and TGTTTGCTTG are within error of each other in switch fluorescence ratio: 1.03 ± 0.074 for the first, 0.993 ± 0.021 for the second.

TGTTTGGAAG and TGTTTGGGCT are within error of each other in switch fluorescence ratio: 1.05 ± 0.056 for the first, 1.02 ± 0.041 for the second.

TGTTTGGGTT and TGTTTTAAAG are within error of each other in switch fluorescence ratio: 0.978 ± 0.012 for the first, 1.01 ± 0.061 for the second.

TGTTTTACTA and TGTTTTATAT are within error of each other in switch fluorescence ratio: 0.986 ± 0.031 for the first, 1.01 ± 0.021 for the second.

TGTTTTATTG and TGTTTTATTT are within error of each other in switch fluorescence ratio: 1.01 ± 0.016 for the first, 0.984 ± 0.018 for the second.

TGTTTTCGGA and TGTTTTCTGT are within error of each other in switch fluorescence ratio: 1.01 ± 0.012 for the first, 0.976 ± 0.04 for the second.

First: TGTTTTGTAT
Second: TGTTTTTAGG
The switch fluorescence ratio of the first is higher: 1.07 ± 0.052 for the first, 0.989 ± 0.023 for the second.

TGTTTTTATT and TGTTTTTGT are within error of each other in switch fluorescence ratio: 1.015 ± 0.0047 for the first, 1.18 ± 0.29 for the second.

TGTTTTTTCG and TGTTTTTTTG are within error of each other in switch fluorescence ratio: 0.992 ± 0.024 for the first, 0.983 ± 0.041 for the second.

TTAAAAAAGT and TTAAAAACAT are within error of each other in switch fluorescence ratio: 1.01 ± 0.02 for the first, 1.024 ± 0.0014 for the second.

TTAAAAATAA and TTAAAACCCC are the same in switch fluorescence ratio: 1.04 ± 0.073 for the first, 1.04 ± 0.054 for the second.

TTAAAACGGA and TTAAAACTTT are the same in switch fluorescence ratio: 1.02 ± 0.036 for the first, 1.02 ± 0.025 for the second.

TTAAAAGATT and TTAAAAGGGG are within error of each other in switch fluorescence ratio: 0.99 ± 0.075 for the first, 1.01 ± 0.044 for the second.

TTAAAAGGT and TTAAAAGTGG are within error of each other in switch fluorescence ratio: 1.04 ± 0.056 for the first, 1.01 ± 0.022 for the second.

TTAAAATACA and TTAAACCTAA are within error of each other in switch fluorescence ratio: 1.1 ± 0.14 for the first, 1.02 ± 0.052 for the second.

Going from TTAAACCTCT to TTAAACCTTG, the switch fluorescence ratio rises from 1 ± 0.019 to 1.15 ± 0.042.

TTAAACGGGG and TTAAAGCGGA are the same in switch fluorescence ratio: 1.01 ± 0.035 for the first, 1.01 ± 0.021 for the second.

TTAAAGGCAG and TTAAAGGGTT are within error of each other in switch fluorescence ratio: 0.989 ± 0.025 for the first, 1.04 ± 0.12 for the second.

TTAAAGTAGG and TTAAAGTGAG are within error of each other in switch fluorescence ratio: 0.992 ± 0.015 for the first, 0.99 ± 0.037 for the second.

TTAAAGTGAT and TTAAAGTGCT are within error of each other in switch fluorescence ratio: 0.995 ± 0.036 for the first, 0.984 ± 0.021 for the second.

TTAAAGTGGT and TTAAAGTTAT are within error of each other in switch fluorescence ratio: 0.9789 ± 0.00047 for the first, 0.986 ± 0.061 for the second.

TTAAAGTTTG and TTAAATAACT are within error of each other in switch fluorescence ratio: 1.06 ± 0.063 for the first, 1.12 ± 0.16 for the second.

TTAAATAATC and TTAAATAGAT are within error of each other in switch fluorescence ratio: 1 ± 0.035 for the first, 1.01 ± 0.02 for the second.

TTAAATAGGG and TTAAATCCGT are within error of each other in switch fluorescence ratio: 1 ± 0.057 for the first, 0.989 ± 0.021 for the second.

In the case of TTAAATGGG, the switch fluorescence ratio is reported as 0.9799 ± 0.0063.
